Measured values published in patent US20200216534A1.
Like-named read-outs stand apart in the source and are kept apart here. Values belong to the molecule of their own block, whether it stands above or below them.

Key:
Assay in all cases: cell-based or functional assay
h19BBz CAR (human) = h19BBz CAR (human) (UniProt P01732)
[1] = biological target: m19-humBBz CAR (mouse; human) (UniProt P01731)
[2] = biological target: m19-humBBz CAR (mouse; human) (UniProt P01731); remark: listed apart in the source

B1: TRAF2 DN (87-501aa) (protein, UniProt Q12933 87-501, looked up, species assumed)
chain: SSSAFPDNAARREVESLPAVCPSDGCTWKGTLKEYESCHEGRCPLMLTECPACKGLVRLGEKERHLEHECPERSLSCRHCRAPCCGADVKAHHEVCPKFPLTCDGCGKKKIPREKFQDHVKTCGKCRVPCRFHAIGCLETVEGEKQQEHEVQWLREHLAMLLSSVLEAKPLLGDQSHAGSELLQRCESLEKKTATFENIVCVLNREVERVAMTAEACSRQHRLDQDKIEALSSKVQQLERSIGLKDLAMADLEQKVLEMEASTYDGVFIWKISDFARKRQEAVAGRIPAIFSPAFYTSRYGYKMCLRIYLNGDGTGRGTHLSLFFVVMKGPNDALLRWPFNQKVTLMLLDQNNREHVIDAFRPDVTSSSFQRPVNDMNIASGCPLFCPVSKMEAKNSYVRDDAIFIKAIVDLTGL
modifications: cerulean fluorescent protein tag
- NF-κB signaling, GFP MFI in NF-κB/293/GFP-Luc reporter cells [2]: 14300 MFI
- NF-κB signaling, GFP+% in NF-κB/293/GFP-Luc reporter cells [2]: 63.5%

B2: TRAF3 DN (382-568aa) (protein, UniProt Q13114 382-568, looked up, species assumed)
chain: ESQLSRHDQMLSVHDIRLADMDLRFQVLETASYNGVLIWKIRDYKRRKQEAVMGKTLSLYSQPFYTGYFGYKMCARVYLNGDGMGKGTHLSLFFVIMRGEYDALLPWPFKQKVTLMLMDQGSSRRHLGDAFKPDPNSSSFKKPTGEMNIASGCPVFVAQTVLENGTYIKDDTIFIKVIVDTSDLPDP
modifications: cerulean fluorescent protein tag
- NF-κB signaling, GFP % in NF-κB/293/GFP-Luc reporter cells [2]: 30.8%
- NF-κB signaling, GFP MFI in NF-κB/293/GFP-Luc reporter cells [2]: 6060 MFI

The remaining lines, values ahead:

- NF-κB, fold against h19BBz alone (h19BBz CAR (human)): 7.7 fold
Molecule: TRAF2 (over-expressed, cerulean-tagged)

- NF-κB signaling, GFP % in NF-κB/293/GFP-Luc reporter cells [1]: 13.4%
- NF-κB signaling, GFP MFI in NF-κB/293/GFP-Luc reporter cells [1]: 1690 MFI
Molecule: TRAF1 DN (184-417aa)
